Experimental data reported in CN105330739A (WATERSTONE PHARMACEUTICALS WUHAN CO LTD, dated 2016).

Molecular target: T1, 鼠VEGF (mouse, UniProt Q00731-2 27-190, limits assumed)
T1 construct: Coated on the ELISA plate at 0.5 ug/ml; also called mouse VEGF
T1 sequence (looked up): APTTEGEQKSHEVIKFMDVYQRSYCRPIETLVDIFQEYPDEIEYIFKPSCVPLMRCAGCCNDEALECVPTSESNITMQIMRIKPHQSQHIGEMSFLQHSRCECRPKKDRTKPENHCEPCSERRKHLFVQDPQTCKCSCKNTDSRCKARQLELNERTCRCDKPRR
Test: ELISA, mouse VEGF coated at 0.5 ug/ml

B1: NevegiMab抗体 (antibody, V domains shown)
VH: EVKLQESGPELKKPGETVKISCKASGYTFTNYGLNWVKQAPGKGLKWMGWINTYTGEPTYADDFKGRFAFSLETSASTAYLQINNLKNEDMATYFCAKYGITYEWYFDVWGAGTTVTVSS
VL: DIVLTQSTSSLSASLGDRVTISCRASQDISNSLNWYQQKPNGTVILLIYYTSRLHSGVPSRFSGSGSGAVYSLTISDLEQEDIATYFCQQGNTFPWTFGGGTKLEIKR
notes: Mouse monoclonal antibody purified from hybridoma supernatant; also called 单抗NevegiMab; 单克隆抗体NevegiMab
B1: no binding.
